Results published in publication PMC9482650, “Quantitative fragmentomics allow affinity mapping of interactomes” (Nature Communications, 2022).

Columns and labels:
Assay in all cases: holdup assay
Set-up in all cases: key: below the threshold = too weak to quantify, mostly under pKd 3.1 to 4
FRMPD2_1, Q68DX3 = conditions: plain residues with an end cap or a label only (N-terminal biotin on a linker: ado-ado)
TJP1_2, Q07157 = conditions: plain residues with an end cap or a label only (N-terminal biotin on a linker: ado-ado)
CASK, O14936 = conditions: plain residues with an end cap or a label only (N-terminal biotin on a linker: ado-ado)
MPDZ_10, O75970 = biological target: T1, MPDZ_10, O75970; conditions: plain residues with an end cap or a label only (N-terminal biotin on a linker: ado-ado)
T1 sequence (O75970 1624-1722, limits assumed, looked up): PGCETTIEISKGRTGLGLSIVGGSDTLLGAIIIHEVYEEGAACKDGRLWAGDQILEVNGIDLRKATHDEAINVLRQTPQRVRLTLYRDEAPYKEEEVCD

DLG3_1, Q92796 = biological target: T2, DLG3_1, Q92796; conditions: plain residues with an end cap or a label only (N-terminal biotin on a linker: ado-ado)
T2 sequence (Q92796 125-227, limits assumed, looked up): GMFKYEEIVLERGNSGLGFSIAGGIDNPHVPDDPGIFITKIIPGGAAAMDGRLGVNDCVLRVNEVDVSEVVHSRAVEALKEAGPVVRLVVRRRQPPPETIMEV

NHERF4_1, Q86UT5-2 = conditions: plain residues with an end cap or a label only (N-terminal biotin on a linker: ado-ado)
ARHGEF11, O15085 = biological target: T3, ARHGEF11, O15085
T3 sequence (O15085 42-136, limits assumed, looked up): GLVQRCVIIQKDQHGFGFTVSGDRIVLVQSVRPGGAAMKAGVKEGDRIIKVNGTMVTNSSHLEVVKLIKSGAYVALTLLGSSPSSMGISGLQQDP

ARHGEF12, Q9NZN5-2 = conditions: plain residues with an end cap or a label only (N-terminal biotin on a linker: ado-ado)
IL16_4, Q14005 = conditions: plain residues with an end cap or a label only (N-terminal biotin on a linker: ado-ado)
MAGI2_2, Q86UL8 = conditions: plain residues with an end cap or a label only (N-terminal biotin on a linker: ado-ado)
GRIP2_5, Q9C0E4 = conditions: plain residues with an end cap or a label only (N-terminal biotin on a linker: ado-ado)
PDZRN4_1, Q6ZMN7 = conditions: plain residues with an end cap or a label only (N-terminal biotin on a linker: ado-ado)
SNTA1, Q13424 = biological target: T4, SNTA1, Q13424
T4 sequence (Q13424 82-180, limits assumed, looked up): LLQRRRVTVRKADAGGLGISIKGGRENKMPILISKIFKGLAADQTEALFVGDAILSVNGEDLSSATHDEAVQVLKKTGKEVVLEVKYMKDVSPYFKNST

SHANK1, Q9Y566 = biological target: T5, SHANK1, Q9Y566; conditions: plain residues with an end cap or a label only (N-terminal biotin on a linker: ado-ado)
T5 sequence (Q9Y566 658-767, limits assumed, looked up): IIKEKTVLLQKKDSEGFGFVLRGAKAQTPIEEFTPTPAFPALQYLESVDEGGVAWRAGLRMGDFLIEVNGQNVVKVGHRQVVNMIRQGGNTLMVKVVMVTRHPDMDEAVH

SNTG1, Q9NSN8 = biological target: T6, SNTG1, Q9NSN8; conditions: plain residues with an end cap or a label only (N-terminal biotin on a linker: ado-ado)
T6 sequence (Q9NSN8 52-150, limits assumed, looked up): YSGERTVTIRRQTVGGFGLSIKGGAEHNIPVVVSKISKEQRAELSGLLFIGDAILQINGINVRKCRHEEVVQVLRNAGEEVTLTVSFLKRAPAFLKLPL

GRIP2_6, Q9C0E4 = conditions: plain residues with an end cap or a label only (N-terminal biotin on a linker: ado-ado)
DLG3_3, Q92796 = biological target: T7, DLG3_3, Q92796; conditions: plain residues with an end cap or a label only (N-terminal biotin on a linker: ado-ado)
T7 sequence (Q92796 374-475, limits assumed, looked up): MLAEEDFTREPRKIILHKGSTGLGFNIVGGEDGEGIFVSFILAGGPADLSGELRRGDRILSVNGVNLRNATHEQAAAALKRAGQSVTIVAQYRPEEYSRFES

Inadl_8, Q8NI35 = conditions: plain residues with an end cap or a label only (N-terminal biotin on a linker: ado-ado)
DLG4_2, P78352 = conditions: plain residues with an end cap or a label only (N-terminal biotin on a linker: ado-ado)
NHERF4_4, Q86UT5 = conditions: plain residues with an end cap or a label only (N-terminal biotin on a linker: ado-ado)
HTRA2, O43464 = conditions: plain residues with an end cap or a label only (N-terminal biotin on a linker: ado-ado)
TJP1_3, Q07157 = conditions: plain residues with an end cap or a label only (N-terminal biotin on a linker: ado-ado)
Inadl_4, Q8NI35 = conditions: plain residues with an end cap or a label only (N-terminal biotin on a linker: ado-ado)
TIAM2, Q8IVF5 = biological target: T8, TIAM2, Q8IVF5; conditions: plain residues with an end cap or a label only (N-terminal biotin on a linker: ado-ado)
T8 sequence (Q8IVF5 885-986, limits assumed, looked up): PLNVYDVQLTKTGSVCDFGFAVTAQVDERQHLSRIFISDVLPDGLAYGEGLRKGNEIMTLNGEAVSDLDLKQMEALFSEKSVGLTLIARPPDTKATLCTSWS

MAGI2_4, Q86UL8 = conditions: plain residues with an end cap or a label only (N-terminal biotin on a linker: ado-ado)
DLG1_2, Q12959 = conditions: plain residues with an end cap or a label only (N-terminal biotin on a linker: ado-ado)
Inadl_9, Q8NI35 = conditions: plain residues with an end cap or a label only (N-terminal biotin on a linker: ado-ado)
MAST2, Q6P0Q8 = conditions: plain residues with an end cap or a label only (N-terminal biotin on a linker: ado-ado)
NHERF3_3, Q5T2W1 = biological target: T9, NHERF3_3, Q5T2W1; conditions: plain residues with an end cap or a label only (N-terminal biotin on a linker: ado-ado)
T9 sequence (Q5T2W1 238-333, limits assumed, looked up): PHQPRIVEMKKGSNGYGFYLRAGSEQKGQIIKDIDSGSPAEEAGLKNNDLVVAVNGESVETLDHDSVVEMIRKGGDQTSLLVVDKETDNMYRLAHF

MAGI3_2, Q5TCQ9 = conditions: plain residues with an end cap or a label only (N-terminal biotin on a linker: ado-ado)
DLG4_1, P78352 = conditions: plain residues with an end cap or a label only (N-terminal biotin on a linker: ado-ado)
DLG2_2, Q15700 = conditions: plain residues with an end cap or a label only (N-terminal biotin on a linker: ado-ado)
TX1BP3, O14907 = biological target: T10, TX1BP3, O14907; conditions: plain residues with an end cap or a label only (N-terminal biotin on a linker: ado-ado)
T10 sequence (O14907 10-122, limits assumed, looked up): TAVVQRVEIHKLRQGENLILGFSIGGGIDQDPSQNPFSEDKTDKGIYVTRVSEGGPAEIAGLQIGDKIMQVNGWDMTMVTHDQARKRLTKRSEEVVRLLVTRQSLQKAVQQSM

PTPN3, P26045 = conditions: plain residues with an end cap or a label only (N-terminal biotin on a linker: ado-ado)
SNX27, Q96L92 = conditions: plain residues with an end cap or a label only (N-terminal biotin on a linker: ado-ado)
DLG1_3, Q12959 = conditions: plain residues with an end cap or a label only (N-terminal biotin on a linker: ado-ado)
APBA2_1, Q99767 = biological target: T11, APBA2_1, Q99767; conditions: plain residues with an end cap or a label only (N-terminal biotin on a linker: ado-ado)
T11 sequence (Q99767 563-664, limits assumed, looked up): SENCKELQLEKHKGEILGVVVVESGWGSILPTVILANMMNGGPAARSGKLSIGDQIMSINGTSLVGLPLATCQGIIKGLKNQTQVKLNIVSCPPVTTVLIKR

FRMPD3, Q5JV73 = conditions: plain residues with an end cap or a label only (N-terminal biotin on a linker: ttds)
GIPC2, Q8TF65 = conditions: plain residues with an end cap or a label only (N-terminal biotin on a linker: ttds)
GRID2IP_2, A4D2P6 = conditions: plain residues with an end cap or a label only (N-terminal biotin on a linker: ttds)
SYNJ2BP, P57105 = biological target: T12, SYNJ2BP, P57105; conditions: plain residues with an end cap or a label only (N-terminal biotin on a linker: ttds)
T12 sequence (P57105 8-110, limits assumed, looked up): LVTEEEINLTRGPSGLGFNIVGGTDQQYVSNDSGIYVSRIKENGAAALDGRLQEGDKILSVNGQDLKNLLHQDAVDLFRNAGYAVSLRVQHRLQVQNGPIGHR

LRRC7, Q96NW7 = biological target: T13, LRRC7, Q96NW7; conditions: plain residues with an end cap or a label only (N-terminal biotin on a linker: ttds)
T13 sequence (Q96NW7 1440-1537, limits assumed, looked up): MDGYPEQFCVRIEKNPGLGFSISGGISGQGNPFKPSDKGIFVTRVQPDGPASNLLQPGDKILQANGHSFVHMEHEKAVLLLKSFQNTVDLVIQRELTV

PARD3B_1, Q8TEW8 = biological target: T14, PARD3B_1, Q8TEW8; conditions: plain residues with an end cap or a label only (N-terminal biotin on a linker: ttds)
T14 sequence (Q8TEW8 196-299, limits assumed, looked up): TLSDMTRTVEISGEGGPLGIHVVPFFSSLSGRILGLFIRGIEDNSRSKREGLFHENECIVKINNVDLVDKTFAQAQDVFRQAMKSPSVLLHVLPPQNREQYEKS

Inadl_1, Q8NI35 = conditions: plain residues with an end cap or a label only (N-terminal biotin on a linker: ttds)
PDZD2_2, O15018 = biological target: T15, PDZD2_2, O15018; conditions: plain residues with an end cap or a label only (N-terminal biotin on a linker: ttds)
T15 sequence (O15018 329-429, limits assumed, looked up): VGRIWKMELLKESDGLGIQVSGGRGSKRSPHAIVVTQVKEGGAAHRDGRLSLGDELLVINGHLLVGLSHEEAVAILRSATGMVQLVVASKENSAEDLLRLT

APBA1_2, Q02410 = biological target: T16, APBA1_2, Q02410; conditions: plain residues with an end cap or a label only (N-terminal biotin on a linker: ttds)
T16 sequence (Q02410 742-832, limits assumed, looked up): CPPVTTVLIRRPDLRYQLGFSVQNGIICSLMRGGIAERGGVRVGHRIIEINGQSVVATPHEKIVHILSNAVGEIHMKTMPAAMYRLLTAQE

ARHGAP21, Q5T5U3 = biological target: T17, ARHGAP21, Q5T5U3; conditions: plain residues with an end cap or a label only (N-terminal biotin on a linker: ttds)
T17 sequence (Q5T5U3 45-169, limits assumed, looked up): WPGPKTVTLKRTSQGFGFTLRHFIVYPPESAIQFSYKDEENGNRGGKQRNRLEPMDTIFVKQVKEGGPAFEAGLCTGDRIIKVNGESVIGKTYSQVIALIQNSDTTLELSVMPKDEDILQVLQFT

[1] = plain residues with an end cap or a label only (N-terminal biotin on a linker: ado-ado)
[2] = plain residues with an end cap or a label only (N-terminal biotin on a linker: ttds)

Sequence of DLG4_2, P78352 (P78352 155-259): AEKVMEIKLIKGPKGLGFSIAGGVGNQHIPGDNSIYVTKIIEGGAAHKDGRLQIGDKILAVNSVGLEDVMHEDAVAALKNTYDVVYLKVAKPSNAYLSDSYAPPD
Sequence of DLG1_2, Q12959 (Q12959 314-412): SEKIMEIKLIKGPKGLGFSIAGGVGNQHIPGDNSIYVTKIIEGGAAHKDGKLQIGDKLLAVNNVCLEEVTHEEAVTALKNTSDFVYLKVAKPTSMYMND
Sequence of MAGI3_2, Q5TCQ9 (Q5TCQ9 398-503): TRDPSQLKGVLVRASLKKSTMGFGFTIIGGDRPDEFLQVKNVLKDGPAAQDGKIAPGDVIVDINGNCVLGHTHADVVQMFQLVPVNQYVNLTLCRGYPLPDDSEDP
Sequence of PTPN3, P26045 (P26045 505-587): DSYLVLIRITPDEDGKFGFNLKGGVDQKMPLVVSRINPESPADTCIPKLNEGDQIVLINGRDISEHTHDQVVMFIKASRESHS
Sequence of MAGI2_4, Q86UL8 (Q86UL8 772-865): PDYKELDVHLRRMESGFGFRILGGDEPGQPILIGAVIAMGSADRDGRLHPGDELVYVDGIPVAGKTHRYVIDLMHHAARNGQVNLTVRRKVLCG
Sequence of NHERF4_4, Q86UT5 (Q86UT5 464-550): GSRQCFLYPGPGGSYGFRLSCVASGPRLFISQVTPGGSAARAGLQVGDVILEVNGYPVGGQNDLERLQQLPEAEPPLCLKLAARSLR
Sequence of MAGI2_2, Q86UL8 (Q86UL8 410-522): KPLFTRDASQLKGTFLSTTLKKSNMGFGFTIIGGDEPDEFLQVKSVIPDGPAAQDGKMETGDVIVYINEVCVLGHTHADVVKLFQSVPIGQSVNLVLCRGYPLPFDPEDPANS
Sequence of Inadl_1, Q8NI35 (Q8NI35 113-229): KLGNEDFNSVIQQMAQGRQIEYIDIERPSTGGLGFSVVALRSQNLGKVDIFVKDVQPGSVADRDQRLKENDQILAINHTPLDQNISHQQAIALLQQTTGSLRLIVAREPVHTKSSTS
Sequence of DLG1_3, Q12959 (Q12959 457-571): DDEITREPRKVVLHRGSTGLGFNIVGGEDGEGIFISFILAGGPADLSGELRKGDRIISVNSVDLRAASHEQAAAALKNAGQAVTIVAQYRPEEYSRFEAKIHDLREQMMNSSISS
Sequence of Inadl_9, Q8NI35 (Q8NI35 1530-1615): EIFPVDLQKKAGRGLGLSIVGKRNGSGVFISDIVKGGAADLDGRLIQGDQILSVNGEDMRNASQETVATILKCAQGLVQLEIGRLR
Sequence of DLG4_1, P78352 (P78352 62-152): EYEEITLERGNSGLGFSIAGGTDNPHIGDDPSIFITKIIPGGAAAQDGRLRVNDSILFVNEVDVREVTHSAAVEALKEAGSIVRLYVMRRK
Sequence of GRIP2_6, Q9C0E4 (Q9C0E4 648-740): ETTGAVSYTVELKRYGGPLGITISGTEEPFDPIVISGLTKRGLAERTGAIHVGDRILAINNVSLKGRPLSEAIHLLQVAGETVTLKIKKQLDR
Sequence of Inadl_8, Q8NI35 (Q8NI35 1425-1530): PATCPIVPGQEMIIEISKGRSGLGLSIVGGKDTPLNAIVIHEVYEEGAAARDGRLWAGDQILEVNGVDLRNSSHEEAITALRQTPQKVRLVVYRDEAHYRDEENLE
Sequence of TJP1_3, Q07157 (Q07157 416-512): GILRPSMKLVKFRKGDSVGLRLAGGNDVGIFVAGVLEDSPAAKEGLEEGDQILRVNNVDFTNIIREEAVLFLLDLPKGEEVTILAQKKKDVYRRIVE
Sequence of GRID2IP_2, A4D2P6 (A4D2P6 272-370): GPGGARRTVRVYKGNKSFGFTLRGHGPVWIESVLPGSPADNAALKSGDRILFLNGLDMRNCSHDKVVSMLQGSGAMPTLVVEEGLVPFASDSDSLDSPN
Sequence of TJP1_2, Q07157 (Q07157 181-274): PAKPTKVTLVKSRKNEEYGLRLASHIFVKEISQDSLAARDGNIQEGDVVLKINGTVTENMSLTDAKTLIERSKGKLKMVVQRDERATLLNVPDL
Sequence of Inadl_4, Q8NI35 (Q8NI35 547-651): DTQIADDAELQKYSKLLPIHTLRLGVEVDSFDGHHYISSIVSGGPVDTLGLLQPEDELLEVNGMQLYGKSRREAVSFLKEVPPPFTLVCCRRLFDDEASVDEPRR
Sequence of PDZRN4_1, Q6ZMN7 (Q6ZMN7 213-318): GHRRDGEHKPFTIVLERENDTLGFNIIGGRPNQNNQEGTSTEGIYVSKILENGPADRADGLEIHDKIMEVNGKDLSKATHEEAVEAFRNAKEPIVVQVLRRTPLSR
Sequence of ARHGEF12, Q9NZN5-2 (Q9NZN5 other isoform, or with tags, fused parts or gaps): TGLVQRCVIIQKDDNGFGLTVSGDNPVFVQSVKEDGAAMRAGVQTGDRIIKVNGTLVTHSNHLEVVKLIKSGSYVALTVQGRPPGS
Sequence of FRMPD3, Q5JV73 (Q5JV73 12-100): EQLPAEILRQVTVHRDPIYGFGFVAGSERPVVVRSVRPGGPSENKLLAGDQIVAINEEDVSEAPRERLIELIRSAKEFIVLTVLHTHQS
Sequence of IL16_4, Q14005 (Q14005 1229-1329): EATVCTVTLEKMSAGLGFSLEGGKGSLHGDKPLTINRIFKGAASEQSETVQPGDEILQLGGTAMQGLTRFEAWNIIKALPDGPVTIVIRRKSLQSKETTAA
Sequence of CASK, O14936 (O14936 487-570): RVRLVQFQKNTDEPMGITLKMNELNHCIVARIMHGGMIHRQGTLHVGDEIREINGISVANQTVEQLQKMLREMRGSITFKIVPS
Sequence of HTRA2, O43464 (O43464 355-458): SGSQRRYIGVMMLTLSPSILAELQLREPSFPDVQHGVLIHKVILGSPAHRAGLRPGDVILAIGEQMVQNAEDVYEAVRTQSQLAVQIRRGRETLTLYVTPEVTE
Sequence of GRIP2_5, Q9C0E4 (Q9C0E4 544-642): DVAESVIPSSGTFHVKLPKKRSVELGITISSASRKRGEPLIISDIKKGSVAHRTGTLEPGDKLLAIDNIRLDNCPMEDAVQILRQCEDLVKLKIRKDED
Sequence of FRMPD2_1, Q68DX3 (Q68DX3 770-861): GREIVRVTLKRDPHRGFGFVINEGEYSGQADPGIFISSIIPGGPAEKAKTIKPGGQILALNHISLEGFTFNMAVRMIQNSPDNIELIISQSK
Sequence of NHERF4_1, Q86UT5-2 (Q86UT5 other isoform, or with tags, fused parts or gaps): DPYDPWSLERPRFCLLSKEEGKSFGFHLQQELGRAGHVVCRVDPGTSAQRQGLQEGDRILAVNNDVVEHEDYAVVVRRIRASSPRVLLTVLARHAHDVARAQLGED
Sequence of MAST2, Q6P0Q8 (Q6P0Q8 1099-1202): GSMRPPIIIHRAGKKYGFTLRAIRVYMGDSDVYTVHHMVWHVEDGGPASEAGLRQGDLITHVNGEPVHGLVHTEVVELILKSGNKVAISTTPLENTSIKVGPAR
Sequence of DLG2_2, Q15700 (Q15700 189-283): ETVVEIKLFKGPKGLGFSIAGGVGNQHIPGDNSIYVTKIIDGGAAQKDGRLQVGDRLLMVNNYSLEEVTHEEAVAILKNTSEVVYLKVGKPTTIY
Sequence of GIPC2, Q8TF65 (Q8TF65 112-203): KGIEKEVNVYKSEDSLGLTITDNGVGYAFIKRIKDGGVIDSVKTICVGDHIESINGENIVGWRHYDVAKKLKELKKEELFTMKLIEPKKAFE

KSGKQTMLVV [TRIM29, Q14134]
pKd (FRMPD2_1, Q68DX3): 3.47 | pKd (TJP1_2, Q07157): 3.88 | pKd (CASK, O14936): 3.48 | pKd (MPDZ_10, O75970): 3.48 | pKd (DLG3_1, Q92796): 3.63 | pKd (NHERF4_1, Q86UT5-2): 3.6 | pKd (ARHGEF11, O15085; [1]): 3.89 | pKd (ARHGEF12, Q9NZN5-2): 3.68 | pKd (IL16_4, Q14005): 3.65 | pKd (MAGI2_2, Q86UL8): 3.51 | pKd (GRIP2_5, Q9C0E4): 3.59 | pKd (PDZRN4_1, Q6ZMN7): 3.68 | pKd (SNTA1, Q13424; [1]): 3.49 | pKd (SHANK1, Q9Y566): 3.52 | pKd (SNTG1, Q9NSN8): 3.5 | pKd (GRIP2_6, Q9C0E4): 3.55 | pKd (DLG3_3, Q92796): 3.81 | pKd (Inadl_8, Q8NI35): 3.69 | pKd (DLG4_2, P78352): 3.79 | pKd (NHERF4_4, Q86UT5): 3.8 | pKd (HTRA2, O43464): 3.68 | pKd (TJP1_3, Q07157): 3.61 | pKd (Inadl_4, Q8NI35): 3.49 | pKd (TIAM2, Q8IVF5): 3.64 | pKd (MAGI2_4, Q86UL8): 3.55 | pKd (DLG1_2, Q12959): 3.67 | pKd (Inadl_9, Q8NI35): 3.49 | pKd (MAST2, Q6P0Q8): 3.62 | pKd (NHERF3_3, Q5T2W1): 3.75 | pKd (MAGI3_2, Q5TCQ9): 3.5 | pKd (DLG4_1, P78352): 3.56 | pKd (DLG2_2, Q15700): 3.48 | pKd (TX1BP3, O14907): 3.88 | pKd (PTPN3, P26045): 3.71 | pKd (SNX27, Q96L92): 3.8 | pKd (DLG1_3, Q12959): 3.69 | pKd (APBA2_1, Q99767): 3.5

NDPAWDETNL [ARHGEF7, Q14155]
pKd (ARHGEF11, O15085; [2]): 3.69 | pKd (FRMPD3, Q5JV73): 3.65 | pKd (GIPC2, Q8TF65): 3.61 | pKd (SNTA1, Q13424; [2]): 3.88 | pKd (GRID2IP_2, A4D2P6): 3.63 | pKd (SYNJ2BP, P57105): 3.8 | pKd (LRRC7, Q96NW7): 3.49 | pKd (PARD3B_1, Q8TEW8): 3.54 | pKd (Inadl_1, Q8NI35): 3.51 | pKd (PDZD2_2, O15018): 3.82 | pKd (APBA1_2, Q02410): 3.5 | pKd (ARHGAP21, Q5T5U3): 3.82
